Results published in the supplement of paper PMC9170038.

How the values were obtained:
MS2 coat protein [1] = assay: apparent KD of MS2 coat protein, switch ON state; designed switch direction (-1 OFF switch, 1 ON switch): -1; higher = weaker reporter binding; settings: FMN input: 0 or 200 uM; Eterna round: R93 (includes R88 designs)
Method in brief: (§1)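 Designed RNA switches were transcribed on-chip from Illumina sequencing clusters and titrated with SNAP-549-labelled MS2 coat protein in twofold steps from 0.7 or 1.5 nM up to 3 µM. Each step lasted 0.8–1.5 h at first and 10–20 min by the end, in 100 mM Tris-HCl pH 7.5, 80 mM KCl and 4 mM MgCl2, without or with constant ligand. Apparent KD is the median, for each design, of fits to normalised cluster binding curves.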

MS2 coat protein [2] = assay: apparent KD of MS2 coat protein, switch OFF state (with FMN for OFF switches, without FMN for ON switches); designed switch direction (-1 OFF switch, 1 ON switch): -1; higher = weaker reporter binding; settings: FMN input: 0 or 200 uM; Eterna round: R93 (includes R88 designs)
Method in brief: as §1

Sequence: AACAAGUCAGGAUAUGUUAAAGGUUACGAAAGGGAUAAAGGGCAGAAGGGACAUGAGGAUCACCCAUGUAAUAA [And All that Jazx]
- apparent KD of MS2 coat protein (MS2 coat protein [1]): 0.048 µM
- apparent KD of MS2 coat protein (MS2 coat protein [2]): 0.0382 µM

Sequence: AACAAGUCAGGAUAUUCGAAAAGUAAAUAAGUAAAACAAAAGAAGAAGGGACAUGAGGAUCACCCAUGUAAAUA [JR_Exc004_Sub016]
- apparent KD of MS2 coat protein (MS2 coat protein [1]): 0.0461 µM
- apparent KD of MS2 coat protein (MS2 coat protein [2]): 0.0279 µM

Sequence: AACAAGUGAGGAUAUCGGAAAAGUAAAUAAGUAAAACAAAACGAGAAGGCACAUGAGGAUCACCCAUGUAAAUA [JR_Exc004_Sub014]
- apparent KD of MS2 coat protein (MS2 coat protein [1]): 0.017 µM
- apparent KD of MS2 coat protein (MS2 coat protein [2]): 0.0174 µM

Sequence: AACAGGUUAGGAUAUGUGUAACAAAUAAAAAAAAUAUAAACACAGAAGGAACAUGAGGAUCACCCAUGUUAACA [May 28]
- apparent KD of MS2 coat protein (MS2 coat protein [1]): 0.0244 µM
- apparent KD of MS2 coat protein (MS2 coat protein [2]): 0.017 µM

Sequence: AACAGUACAGGAUAUACAUGAGGAUCACCCAUGUAAAAAUAAUAAAAGGGCUCAAAAAGUAGAAGGGUACUGGA [Moding Maslow revisited (73) 15]
- apparent KD of MS2 coat protein (MS2 coat protein [1]): 0.0312 µM
- apparent KD of MS2 coat protein (MS2 coat protein [2]): 0.0663 µM

Sequence: AACAGUACAGGAUAUACAUGAGGAUCACCCAUGUCACAACAAAGCAGCGCAACACAAAGUAGAAGGGUAAUGGA [Ruby 15]
- apparent KD of MS2 coat protein (MS2 coat protein [1]): 0.0346 µM
- apparent KD of MS2 coat protein (MS2 coat protein [2]): 0.0404 µM

Sequence: AACAGUACAGGAUAUACAUGAGGAUCACCCAUGUGAAAAUAAAGUGGCGUACCACAAAGUAGAAGGGUACUGAA [Mat - Exclusion 3 - JL mod - D26]
- apparent KD of MS2 coat protein (MS2 coat protein [1]): 0.0267 µM
- apparent KD of MS2 coat protein (MS2 coat protein [2]): 0.124 µM

Sequence: AACAGUACAGGAUAUACAUGAGGAUCACCCAUGUGAAAAUAAAGUGGCGUACCACGAAGUAGAAGGGUACUGGA [Ruby 58]
- apparent KD of MS2 coat protein (MS2 coat protein [1]): 0.0211 µM
- apparent KD of MS2 coat protein (MS2 coat protein [2]): 0.0725 µM

Sequence: AACAGUACAGGAUAUACAUGAGGAUCACCCAUGUGAAAAUUAAGUGGAGAACCACAAGGUAGAAGGGUACUGGA [Mat - Exclusion 3 - Eli mod - D62]
- apparent KD of MS2 coat protein (MS2 coat protein [1]): 0.0424 µM
- apparent KD of MS2 coat protein (MS2 coat protein [2]): 0.127 µM

Sequence: AACAGUACAGGAUAUACAUGAGGAUCACCCAUGUGAAAAUUAAGUGGGAGACCACAAAGUAGAAGGGUACUGAA [Mat - Exclusion 3 - Eli mod - D60]
- apparent KD of MS2 coat protein (MS2 coat protein [1]): 0.126 µM
- apparent KD of MS2 coat protein (MS2 coat protein [2]): 0.0623 µM

Sequence: AACAGUACAGGAUAUACAUGAGGAUCACCCAUGUGAACUUCAAGUGCCGUAGCACGAAGUAGAAGGGUACUGGA
- apparent KD of MS2 coat protein (MS2 coat protein [1]): 0.0634 µM
- apparent KD of MS2 coat protein (MS2 coat protein [2]): 0.497 µM

Sequence: AACAGUACAGGAUAUACAUGAGGAUCACCCAUGUGAGAAUUAAGCAGCGUAACACAAAGUAGAAGGGUAAUGGA [Ruby 19]
- apparent KD of MS2 coat protein (MS2 coat protein [1]): 0.0399 µM
- apparent KD of MS2 coat protein (MS2 coat protein [2]): 0.0439 µM

Sequence: AACAGUACAGGAUAUACAUGAGGAUCACCCAUGUGAGAAUUAAGUGGAAAACCACAAAGUAGAAGGGUACUGGA [Mat - Exclusion 3 - JL mod - D3]
- apparent KD of MS2 coat protein (MS2 coat protein [1]): 0.0266 µM
- apparent KD of MS2 coat protein (MS2 coat protein [2]): 0.234 µM

Sequence: AACAGUACAGGAUAUACAUGAGGAUCACCCAUGUGAGAAUUAAGUGGCGAACCACAAAGUAGAAGGGUACUGGA [Mat - Exclusion 3 - JL mod - D1]
- apparent KD of MS2 coat protein (MS2 coat protein [1]): 0.0431 µM
- apparent KD of MS2 coat protein (MS2 coat protein [2]): 0.469 µM

Sequence: AACAGUACAGGAUAUACAUGAGGAUCACCCAUGUGAGAAUUUAGCAGCGUAACACACAGUAGAAGGGUAAUGGA [Ruby 21]
- apparent KD of MS2 coat protein (MS2 coat protein [1]): 0.0454 µM
- apparent KD of MS2 coat protein (MS2 coat protein [2]): 0.0393 µM

Sequence: AACAUGUAAGGAUAUCUAAGAAAAGAAAAGAAAGAAAAGAAAGAGAAGGUACAUGAGGAUCACCCAUGUAAGAA [EteRNA is fun!]
- apparent KD of MS2 coat protein (MS2 coat protein [1]): 0.0327 µM
- apparent KD of MS2 coat protein (MS2 coat protein [2]): 0.0183 µM

Sequence: AACAUGUGAGGAUAUAUAAGAAAAGAAAAGAAAGAAAAGAAAUAGAAGGCACAUGAGGAUCACCCAUGUAAGAA [EteRNA is fun!]
- apparent KD of MS2 coat protein (MS2 coat protein [1]): 0.03 µM
- apparent KD of MS2 coat protein (MS2 coat protein [2]): 0.0262 µM

Sequence: AACGUACAUGAGGAUCACCCAUGUUAGGAUAUGCCGGGUUAGAGCCAACUAAAAAACCGUAGAAGGGACGAAAA [Bilbo Confounded 11 - Jieux - Exclusion 1]
- apparent KD of MS2 coat protein (MS2 coat protein [1]): 0.0276 µM
- apparent KD of MS2 coat protein (MS2 coat protein [2]): 0.0302 µM

Sequence: AACUGACAUGAGGAUCACCCAUGUCAGGAUAUGAUAUGUAAAAAAAAAAAAAUACUUAUCAGAAGGGACAUGGA [Design 42: Sub-opt BB]
- apparent KD of MS2 coat protein (MS2 coat protein [1]): 0.0228 µM
- apparent KD of MS2 coat protein (MS2 coat protein [2]): 0.03 µM

Sequence: AACUGACAUGAGGAUCACCCAUGUCAGGAUAUGAUAUGUAAAAAAUAAAAAAUACUUAUCAGAAGGGACAUGAA [Design 43: Sub-opt C]
- apparent KD of MS2 coat protein (MS2 coat protein [1]): 0.0158 µM
- apparent KD of MS2 coat protein (MS2 coat protein [2]): 0.0144 µM
